The values that follow come from US20210347895A1 (IMMUNOME, published 2021).

In one assay the target is T1, BSA (UniProt P02769 25-607).
T1 construct: also called BSA-coated beads
The experiment in a line: flow cytometry; BSA-coated latex beads, two-colour dot plot of IMM20059 against anti-CD63.

A further assay deals with T2, recombinant PD-L1 (UniProt Q9NZQ7 19-238).
T2 construct: also called Programmed Death Ligand-1
Kind of assay: dot blot; recombinant PD-L1 spotted at 4, 10 and 40 ng, probed with the antibody.

T1 sequence (P02769 25-607 limits assumed): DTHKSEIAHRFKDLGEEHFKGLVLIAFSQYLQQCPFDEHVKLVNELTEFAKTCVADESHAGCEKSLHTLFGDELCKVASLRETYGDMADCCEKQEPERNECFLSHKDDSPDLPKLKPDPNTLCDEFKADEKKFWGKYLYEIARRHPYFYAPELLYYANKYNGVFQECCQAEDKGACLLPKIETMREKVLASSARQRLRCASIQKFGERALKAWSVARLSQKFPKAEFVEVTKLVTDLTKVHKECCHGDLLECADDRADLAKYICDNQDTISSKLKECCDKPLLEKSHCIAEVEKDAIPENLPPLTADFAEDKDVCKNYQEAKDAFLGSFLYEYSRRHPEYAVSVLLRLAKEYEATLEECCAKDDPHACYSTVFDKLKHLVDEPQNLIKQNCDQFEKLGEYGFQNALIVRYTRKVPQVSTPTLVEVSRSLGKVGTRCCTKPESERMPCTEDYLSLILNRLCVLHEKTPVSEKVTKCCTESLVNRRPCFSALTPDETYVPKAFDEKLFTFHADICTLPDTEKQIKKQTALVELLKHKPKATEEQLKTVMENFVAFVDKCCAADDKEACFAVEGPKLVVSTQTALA
T2 sequence (Q9NZQ7 19-238 limits assumed): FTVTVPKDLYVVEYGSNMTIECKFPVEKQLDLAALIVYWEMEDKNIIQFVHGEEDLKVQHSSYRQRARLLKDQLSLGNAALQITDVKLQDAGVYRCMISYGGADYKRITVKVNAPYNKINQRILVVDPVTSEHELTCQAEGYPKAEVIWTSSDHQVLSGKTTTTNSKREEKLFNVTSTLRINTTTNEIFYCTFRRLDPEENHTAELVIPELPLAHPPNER
Text for recombinant PD-L1: Binding activity of anti-EPN1/anti-PD-L1 DVD-IgG bispecific antibodies. […] Purified recombinant proteins were spotted at three dose levels as depicted in FIG. 10, and probed with the four anti-EPN1/anti-PD-L1 bispecific antibodies. […] An antibody specific for a coat protein on the dengue virus served as a negative control.

B1: IMM20059 (antibody, V domains shown)
VH: EVQLVESGGGLVQPGGSLRLSCAASGFTFSIHSLNWVRQAPGKGLEWVSYISSNSTTIYYADSVKGRFTISRDNAKDSLYLQMNSLRDEDTAVYYCARDYYCTGGTCFFLPDLWGRGALVTVSS
VL: EIVLTQSPATLSLSPGERATLSCRASQNISNFLAWYQHKPGQAPRLLIYDASIRATGIPARFSGSGSGTDFSLTISSLEPEDFAVYFCQQRYNWLTFGGGTKVEIKR
notes: Recombinantly expressed human IgG1 with the PR045-2H11 VH and VL domains
For the molecule B1, the binding result in the assay with BSA is given as “no binding”; in the assay with recombinant PD-L1 it was “no binding (tested: 40 ng)”.
